Here are results for 28 molecules from patent US20120039802A1 (published 2012).

For test [1], the target named is T1, cMet-Fc fusion protein (extracellular domain of the cMet receptor expressed as an Fc-fusion protein) (human, UniProt P08581 25-932).
T1 construct: extracellular domain; also called soluble cMet-Fc-fusion protein; soluble cMet receptor; not shown: Fc part
As to the kind of experiment: phage ELISA, cMet-Fc vs TRAIL-Fc. The procedure, abridged: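 Specificity check: phage displaying peptides incubated 2 h at room temperature on wells coated with 0.5 μg/mL cMet-Fc versus TRAIL-Fc, after blocking with 3% BSA/PBST. HRP-anti-M13 antibody detected binding phage.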
A general note: An ELISA detects its analyte on a solid surface through an enzyme-linked reagent.

In test [2] the target is T2, human cMet expressed on 3T3 cells (human, UniProt P08581 25-1390).
T2 construct: whole, on cells; cells fixed with glutaraldehyde; also called cell surface-expressed human cMet; 3T3 cells that over-express human cMet
T2 sequence (P08581 25-1390): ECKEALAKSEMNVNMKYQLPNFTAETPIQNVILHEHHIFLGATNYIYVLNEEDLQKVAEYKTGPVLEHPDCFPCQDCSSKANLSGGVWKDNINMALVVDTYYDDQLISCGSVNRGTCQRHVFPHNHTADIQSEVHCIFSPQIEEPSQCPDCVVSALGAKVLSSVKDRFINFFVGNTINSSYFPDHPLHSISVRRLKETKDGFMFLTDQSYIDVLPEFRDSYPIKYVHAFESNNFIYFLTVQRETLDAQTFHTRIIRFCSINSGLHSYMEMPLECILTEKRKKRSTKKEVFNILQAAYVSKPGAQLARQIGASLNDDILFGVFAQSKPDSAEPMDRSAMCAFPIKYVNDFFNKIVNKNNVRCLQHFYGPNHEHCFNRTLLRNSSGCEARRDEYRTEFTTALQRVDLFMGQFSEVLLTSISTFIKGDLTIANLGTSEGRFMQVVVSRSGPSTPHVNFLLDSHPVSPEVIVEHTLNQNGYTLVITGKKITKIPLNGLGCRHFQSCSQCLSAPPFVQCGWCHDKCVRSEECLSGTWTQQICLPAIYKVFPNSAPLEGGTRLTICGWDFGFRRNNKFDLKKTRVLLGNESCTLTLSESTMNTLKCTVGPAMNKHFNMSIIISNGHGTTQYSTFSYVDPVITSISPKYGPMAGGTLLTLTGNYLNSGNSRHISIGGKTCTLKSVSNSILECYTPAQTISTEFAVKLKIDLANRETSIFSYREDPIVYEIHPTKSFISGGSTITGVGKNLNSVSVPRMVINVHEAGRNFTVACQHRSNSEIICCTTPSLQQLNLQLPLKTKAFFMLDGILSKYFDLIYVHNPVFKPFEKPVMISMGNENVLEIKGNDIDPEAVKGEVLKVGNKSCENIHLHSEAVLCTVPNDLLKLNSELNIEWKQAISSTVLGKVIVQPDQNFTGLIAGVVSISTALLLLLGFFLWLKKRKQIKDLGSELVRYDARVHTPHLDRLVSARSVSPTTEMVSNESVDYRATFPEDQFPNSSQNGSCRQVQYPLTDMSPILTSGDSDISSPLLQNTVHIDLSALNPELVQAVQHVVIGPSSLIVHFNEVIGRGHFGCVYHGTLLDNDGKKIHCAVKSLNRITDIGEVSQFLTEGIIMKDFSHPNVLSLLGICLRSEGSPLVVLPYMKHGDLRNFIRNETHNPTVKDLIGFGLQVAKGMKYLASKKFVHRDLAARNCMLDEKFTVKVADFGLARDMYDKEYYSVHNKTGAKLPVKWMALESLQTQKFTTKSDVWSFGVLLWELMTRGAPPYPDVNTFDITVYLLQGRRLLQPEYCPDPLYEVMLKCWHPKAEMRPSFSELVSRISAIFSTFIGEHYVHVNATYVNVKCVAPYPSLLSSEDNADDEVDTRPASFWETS
As to the kind of experiment: whole cell phage ELISA, 3T3 human cMet vs 3T3. The procedure, abridged:
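Bound phage was detected with an HRP-conjugated anti-M13 antibody after PBST washes. The cells were cMet-over-expressing 3T3, read against plain 3T3.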

The target in test [3] is T1, cMet-Fc fusion protein (extracellular …). Description: phage ELISA on cMet-Fc, competitor HGF 100 ng/mL. The procedure, abridged: (§1)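 Plates coated with 0.5 μg/mL cMet-Fc, with TRAIL-Fc as background, then blocked with 3% BSA. Bound phage detected with HRP anti-M13 antibody.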
For test [4] the target is unchanged. As to the kind of experiment: phage ELISA on cMet-Fc, competitor HGF 500 ng/mL. A digest of the protocol: as §1

T1 sequence (P08581 25-932): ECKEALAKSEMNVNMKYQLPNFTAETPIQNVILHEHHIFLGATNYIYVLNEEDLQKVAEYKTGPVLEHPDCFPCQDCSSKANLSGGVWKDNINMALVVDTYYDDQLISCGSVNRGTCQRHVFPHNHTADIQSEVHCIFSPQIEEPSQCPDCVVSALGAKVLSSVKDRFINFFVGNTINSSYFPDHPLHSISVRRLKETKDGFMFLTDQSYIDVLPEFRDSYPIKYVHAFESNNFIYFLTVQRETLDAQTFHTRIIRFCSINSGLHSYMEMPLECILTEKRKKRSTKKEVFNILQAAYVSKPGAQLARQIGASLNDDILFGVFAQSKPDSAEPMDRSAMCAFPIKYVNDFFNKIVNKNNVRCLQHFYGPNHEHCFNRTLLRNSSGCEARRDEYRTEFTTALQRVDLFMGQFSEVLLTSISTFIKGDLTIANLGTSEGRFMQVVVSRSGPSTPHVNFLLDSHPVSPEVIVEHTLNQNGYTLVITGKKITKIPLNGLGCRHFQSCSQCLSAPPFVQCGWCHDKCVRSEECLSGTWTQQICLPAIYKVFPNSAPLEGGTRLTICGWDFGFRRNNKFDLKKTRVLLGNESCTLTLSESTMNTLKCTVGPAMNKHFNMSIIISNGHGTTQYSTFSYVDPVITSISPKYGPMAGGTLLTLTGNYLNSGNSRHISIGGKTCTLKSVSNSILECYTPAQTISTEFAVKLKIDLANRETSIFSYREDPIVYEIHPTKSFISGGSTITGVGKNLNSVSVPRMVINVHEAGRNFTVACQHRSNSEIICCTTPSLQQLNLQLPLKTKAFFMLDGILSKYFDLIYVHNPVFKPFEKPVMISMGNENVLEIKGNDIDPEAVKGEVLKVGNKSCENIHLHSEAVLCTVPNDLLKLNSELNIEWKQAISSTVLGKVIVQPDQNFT

AQWNQWDEFMWFLNPPPIGLMW [151-B08 peptide-displaying phage (SEQ ID NO: 480)]: the “Protein ELISA (fold over background)” value in test [1] was found to be 3.3 fold. For the same molecule, in test [2], the “WC ELISA (fold over background)” value came to 1.23 fold. Further, the results for the “% of binding in the absence of HGF” value in test [3] and in test [4] were 102% and 368%, respectively.

In the case of AQDPGFSKHSMGHGYPSKMNWG [115-G02 peptide-displaying phage (SEQ ID NO: 471)], the “Protein ELISA (fold over background)” value in test [1] was 3.7 fold. Moreover, in test [2], the “WC ELISA (fold over background)” value is 1.27 fold. The “% of binding in the absence of HGF” value in test [3] was determined as 59%; in test [4], 0%.

For AQHMDPAEWDWFIRIYSPVVNP [149-E06 peptide-displaying phage (SEQ ID NO: 487)], the “Protein ELISA (fold over background)” value in test [1] was found to be 3 fold. The “WC ELISA (fold over background)” value in test [2] was determined as 1.8 fold. Also, the “% of binding in the absence of HGF” value in test [3] was found to be 80%; in test [4], 86%.

Take AQFMYEKEHYVMSISLPGLWFY [122-D07 peptide-displaying phage (SEQ ID NO: 486)]: the “Protein ELISA (fold over background)” value in test [1] amounted to 3 fold. Moreover, the “WC ELISA (fold over background)” value in test [2] is 1.63 fold. For the same molecule, the “% of binding in the absence of HGF” value worked out at 102% in test [3] and 92% in test [4].

Regarding AQLFQYLWHDDPQGAFFQLSMW [98-F05 peptide-displaying phage (SEQ ID NO: 483)], the “Protein ELISA (fold over background)” value in test [1] came out at 3.1 fold. Further, in test [2], the “WC ELISA (fold over background)” value was 1.23 fold. For the same molecule, the “% of binding in the absence of HGF” value in test [3] was 88%; in test [4] it was 57%.

For the molecule AQAEWVITSEEFYWKMADFGPP [75-B12 peptide-displaying phage (SEQ ID NO: 478)], the “Protein ELISA (fold over background)” value in test [1] came to 3.4 fold. In addition, the “WC ELISA (fold over background)” value in test [2] was determined as 1.23 fold. Besides, the entries for the “% of binding in the absence of HGF” value in test [3] and in test [4] were 95% and 108%, respectively.

AGYYHCIDDFPQCKWMGT [482-D02 peptide-displaying phage (SEQ ID NO: 017)]: the “Protein ELISA (fold over background)” value in test [1] amounted to 3.9 fold. Further, in test [2], the “WC ELISA (fold over background)” value was found to be 1.37 fold. Besides, the “% of binding in the absence of HGF” value in test [3] turned out to be 66%; in test [4], 44%.

AQVGESLDDGWTFFSDKWFDFF [27-D10 peptide-displaying phage (SEQ ID NO: 485)]: the “Protein ELISA (fold over background)” value in test [1] is 3 fold. In addition, the “WC ELISA (fold over background)” value in test [2] turned out to be 1.17 fold. Moreover, the “% of binding in the absence of HGF” value was determined as 111% in test [3] and 131% in test [4].

For the molecule AQMGHHWDVQWDYKLFHVARGD [136-D01 peptide-displaying phage (SEQ ID NO: 473)], in test [1], the “Protein ELISA (fold over background)” value turned out to be 3.7 fold. In addition, the “WC ELISA (fold over background)” value in test [2] came out at 1.23 fold. The results for the “% of binding in the absence of HGF” value in test [3] and in test [4] were 85% and 149%, respectively.

In the case of AQAYEWWADESIFNHGYYWGHQ [94-B08 peptide-displaying phage (SEQ ID NO: 470)], in test [1], the “Protein ELISA (fold over background)” value is 3.8 fold. In test [2], the “WC ELISA (fold over background)” value stood at 1.2 fold. The “% of binding in the absence of HGF” value turned out to be 111% in test [3] and 121% in test [4].

For AQEWQTWTWNMIEVISENKTP [117-F03 peptide-displaying phage (SEQ ID NO: 468)], in test [1], the “Protein ELISA (fold over background)” value stood at 3.8 fold. Further, the “WC ELISA (fold over background)” value in test [2] was 1.4 fold. In addition, the “% of binding in the absence of HGF” value was found to be 104% in test [3] and 93% in test [4].

Turning to AQKTWFLEADLFQMFQEVTWQF [103-C04 peptide-displaying phage (SEQ ID NO: 490)], in test [1], the “Protein ELISA (fold over background)” value was 3 fold. Besides, the “WC ELISA (fold over background)” value in test [2] came out at 1.4 fold. Also, the “% of binding in the absence of HGF” value came out at 73% in test [3] and 86% in test [4].

Take AQDNTADQMFNGFHVLAMYMV [117-E09 peptide-displaying phage (SEQ ID NO: 481)]: the “Protein ELISA (fold over background)” value in test [1] was 3.3 fold. In addition, in test [2], the “WC ELISA (fold over background)” value was determined as 1.37 fold. The “% of binding in the absence of HGF” value stood at 109% in test [3] and 102% in test [4].

Regarding AGWFECEFGFWGCNWLGT [437-A09 peptide-displaying phage (SEQ ID NO: 018)], in test [1], the “Protein ELISA (fold over background)” value amounted to 3.9 fold. For the same molecule, the “WC ELISA (fold over background)” value in test [2] amounted to 1.13 fold. Also, the figures for the “% of binding in the absence of HGF” value in test [3] and in test [4] were 89% and 78%, respectively.

For the molecule AQSDHDHAHWGVKHWPFRRYQ [93-B10 peptide-displaying phage (SEQ ID NO: 482)], the “Protein ELISA (fold over background)” value in test [1] came out at 3.1 fold. Also, the “WC ELISA (fold over background)” value in test [2] was 1.2 fold. Also, the “% of binding in the absence of HGF” value in test [3] and in test [4] was 0% throughout.

Consider AQEWEREYFVDGFWGSWFGIPH [130-E10 peptide-displaying phage (SEQ ID NO: 472)], for which the “Protein ELISA (fold over background)” value in test [1] was found to be 3.7 fold. Also, the “WC ELISA (fold over background)” value in test [2] came out at 1.8 fold. The “% of binding in the absence of HGF” value in test [3] is 100%; in test [4], 92%.

As for AQHVVTLTLIQMPFAFNFEPRM [118-B12 peptide-displaying phage (SEQ ID NO: 484)], the “Protein ELISA (fold over background)” value in test [1] was 3.1 fold. For the same molecule, the “WC ELISA (fold over background)” value in test [2] is 1.3 fold. The “% of binding in the absence of HGF” value amounted to 98% in test [3] and 112% in test [4].

In the case of AQGFELWVDHTRNFFIAISP [127-A07 peptide-displaying phage (SEQ ID NO: 469)], the “Protein ELISA (fold over background)” value in test [1] was found to be 3.8 fold. In addition, the “WC ELISA (fold over background)” value in test [2] stood at 1.2 fold. For the same molecule, the “% of binding in the absence of HGF” value in test [3] came out at 101%; in test [4], 107%.

As to AQHSVQRQMDVWMPVQFMAGFT [02-B08 peptide-displaying phage (SEQ ID NO: 467)], the “Protein ELISA (fold over background)” value in test [1] was found to be 3.9 fold. Also, the “WC ELISA (fold over background)” value in test [2] was determined as 1.3 fold. The “% of binding in the absence of HGF” value in test [3] turned out to be 84%; in test [4], 96%.

As for AQWPHDGLVHWGEVIMLRF [117-F04 peptide-displaying phage (SEQ ID NO: 479)], the “Protein ELISA (fold over background)” value in test [1] came to 3.3 fold. Also, the “WC ELISA (fold over background)” value in test [2] came out at 1.37 fold. Also, the “% of binding in the absence of HGF” value in test [3] is 93%; in test [4] it was 91%.

For the molecule AQMWHRVHDPGYTFEVTWLWDN [166-H04 peptide-displaying phage (SEQ ID NO: 488)], the “Protein ELISA (fold over background)” value in test [1] worked out at 3 fold. In addition, the “WC ELISA (fold over background)” value in test [2] amounted to 1.27 fold. For the same molecule, the “% of binding in the absence of HGF” value came out at 77% in test [3] and 85% in test [4].

On to AQHGYLSPLKQYQMSHVEFWTY [94-A06 peptide-displaying phage (SEQ ID NO: 476)], for which the “Protein ELISA (fold over background)” value in test [1] was 3.5 fold. The “WC ELISA (fold over background)” value in test [2] was found to be 1.17 fold. In addition, the “% of binding in the absence of HGF” value came to 84% in test [3] and 96% in test [4].

As to AQWGAVDNDWYDWEMEQIWMFE [527-E08 peptide-displaying phage (SEQ ID NO: 491)], in test [1], the “Protein ELISA (fold over background)” value worked out at 3.2 fold. The “WC ELISA (fold over background)” value in test [2] was 1.23 fold. In addition, the “% of binding in the absence of HGF” value is 98% in test [3] and 95% in test [4].

Consider AQFSGLVMYGRTHEVQWTFGSM [94-G02 peptide-displaying phage (SEQ ID NO: 477)], for which the “Protein ELISA (fold over background)” value in test [1] was 3.5 fold. For the same molecule, the “WC ELISA (fold over background)” value in test [2] was determined as 1.3 fold. In addition, the “% of binding in the absence of HGF” value in test [3] is 108%; in test [4], 76%.

Take AQKETWEFFDIVYGSGWKFNSP [116-H02 peptide-displaying phage (SEQ ID NO: 466)]: the “Protein ELISA (fold over background)” value in test [1] was 4 fold. Besides, the “WC ELISA (fold over background)” value in test [2] came out at 1.23 fold. For the same molecule, the “% of binding in the absence of HGF” value in test [3] came to 84%; in test [4], 72%.

As for AQHWDYDSGSDFWFPVFFLEHH [79-B02 peptide-displaying phage (SEQ ID NO: 475)], in test [1], the “Protein ELISA (fold over background)” value was 3.5 fold. In addition, the “WC ELISA (fold over background)” value in test [2] was determined as 1.3 fold. Moreover, the “% of binding in the absence of HGF” value in test [3] was determined as 102%; in test [4], 86%.

Regarding AQWNWDMGFMWTTDSAQVQPSM [96-D06 peptide-displaying phage (SEQ ID NO: 489)], in test [1], the “Protein ELISA (fold over background)” value turned out to be 3 fold. Further, in test [2], the “WC ELISA (fold over background)” value worked out at 1.37 fold. Further, the “% of binding in the absence of HGF” value in test [3] was determined as 154%; in test [4], 151%.

Regarding AQELFQILEKQMWSDFMEWATP [15-D02 peptide-displaying phage (SEQ ID NO: 474)], the “Protein ELISA (fold over background)” value in test [1] amounted to 3.6 fold. Besides, in test [2], the “WC ELISA (fold over background)” value was determined as 1.23 fold. Besides, the “% of binding in the absence of HGF” value in test [3] amounted to 97%; in test [4], 118%.
